Results as given in patent US20250042961A1, “P53 PEPTIDOMIMETIC MACROCYCLES” (MERCK SHARP & DOHME LLC, priority 2021, published 2025).

Tests used:
[1] = biological target: Purified MDM2 (1-125) protein (human MDM2 1-125 sequence comprising a modified TEV cleavage site, pNIC-GST fusion) (human) (UniProt Q00987); experiment: competitive fluorescence anisotropy (FP) against FAM-labeled 12/1 peptide on MDM2 (1-125); apparent Kd
[2] = biological target: MDM2 (in HCT116 cells) (human) (UniProt Q00987); experiment: cell-based or functional assay

Sequence of Purified MDM2 (1-125) protein (human MDM2 1-125 sequence comprising a modified TEV cleavage site, pNIC-GST fusion) (human) (Q00987 1-125 limits assumed): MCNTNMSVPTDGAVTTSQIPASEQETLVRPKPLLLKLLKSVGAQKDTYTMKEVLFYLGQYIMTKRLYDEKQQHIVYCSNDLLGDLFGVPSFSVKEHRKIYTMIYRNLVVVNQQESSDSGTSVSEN

Substance	Kd [1] [nM]	p53 activity EC50 (µM) (0% FBS, 4 h) [2]	p53 activity EC50 (µM) (10% FBS, 16 h) [2]
Acetyl-^DPMI-δ-(6-10 olefin staple) (D-K9D-Q, D-R12D-S) (D-A)-(D-F)-(D-A)-(D-Ala)-(D-A)-(D-A) polypeptide tail)-NH2	30		
^DPMI-δ-(5-12 olefin staple)-NH2 (peptide)	33.9	13.6	30.8
Acetyl-^DPMI-δ-(6-10 olefin staple) (D-K9D-Q, D-R12D-S, 3x(D-A) polypeptide tail)-NH2	3.1		
Acetyl-^DPMI-δ-(6-10 olefin staple) (D-K9D-Q, D-R12D-S, 3x(D-Ala)-(D-Glu)-2x(D-Ala) polypeptide tail)-NH2	0.43		

Continued by falling Kd [1], values first:

Kd [1] [nM]	p53 activity EC50 (µM) (0% FBS, 4 h) [2]	p53 activity EC50 (µM) (10% FBS, 16 h) [2]	Substance
258			Acetyl-^DPMI-δ-(6-10 olefin staple) (D-K9D-Q, D-R12D-S)-NH2 (peptide)
118			^DPMI-δ-(6-10 olefin staple)-NH2 (peptide)
